US20220017591A1 (AstraZeneca / MedImmune, published 2022)
Where two headings read alike, the source gives them in different places.

Tests used:
Assay in all cases: cell-based or functional assay
human RXFP1 [1] = molecular target: T1, human RXFP1 (human, UniProt Q9HBX9 1-757)
T1 sequence (looked up): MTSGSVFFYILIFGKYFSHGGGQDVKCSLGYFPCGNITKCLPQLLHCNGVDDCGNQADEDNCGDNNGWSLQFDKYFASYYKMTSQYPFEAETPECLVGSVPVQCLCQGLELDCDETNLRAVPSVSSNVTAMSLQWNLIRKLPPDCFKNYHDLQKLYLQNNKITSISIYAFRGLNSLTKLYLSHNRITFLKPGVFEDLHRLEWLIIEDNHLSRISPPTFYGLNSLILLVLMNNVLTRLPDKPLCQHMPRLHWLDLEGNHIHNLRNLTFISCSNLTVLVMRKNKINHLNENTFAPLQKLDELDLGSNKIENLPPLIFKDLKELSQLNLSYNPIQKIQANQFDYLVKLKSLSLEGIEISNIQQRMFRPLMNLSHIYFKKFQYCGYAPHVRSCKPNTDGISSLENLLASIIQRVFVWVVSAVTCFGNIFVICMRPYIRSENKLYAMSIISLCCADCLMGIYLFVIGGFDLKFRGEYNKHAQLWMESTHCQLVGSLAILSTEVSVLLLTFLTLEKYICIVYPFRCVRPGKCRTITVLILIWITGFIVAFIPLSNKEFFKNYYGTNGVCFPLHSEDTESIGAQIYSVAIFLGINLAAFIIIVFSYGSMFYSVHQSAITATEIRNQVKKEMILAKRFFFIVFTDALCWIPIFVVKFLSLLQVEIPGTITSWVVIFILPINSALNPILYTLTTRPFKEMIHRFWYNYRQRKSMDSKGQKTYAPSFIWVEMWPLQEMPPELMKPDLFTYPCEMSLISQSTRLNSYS

mouse RXFP1 [2] = molecular target: T2, mouse RXFP1 (mouse, UniProt Q6R6I7 1-758)
T2 sequence (looked up): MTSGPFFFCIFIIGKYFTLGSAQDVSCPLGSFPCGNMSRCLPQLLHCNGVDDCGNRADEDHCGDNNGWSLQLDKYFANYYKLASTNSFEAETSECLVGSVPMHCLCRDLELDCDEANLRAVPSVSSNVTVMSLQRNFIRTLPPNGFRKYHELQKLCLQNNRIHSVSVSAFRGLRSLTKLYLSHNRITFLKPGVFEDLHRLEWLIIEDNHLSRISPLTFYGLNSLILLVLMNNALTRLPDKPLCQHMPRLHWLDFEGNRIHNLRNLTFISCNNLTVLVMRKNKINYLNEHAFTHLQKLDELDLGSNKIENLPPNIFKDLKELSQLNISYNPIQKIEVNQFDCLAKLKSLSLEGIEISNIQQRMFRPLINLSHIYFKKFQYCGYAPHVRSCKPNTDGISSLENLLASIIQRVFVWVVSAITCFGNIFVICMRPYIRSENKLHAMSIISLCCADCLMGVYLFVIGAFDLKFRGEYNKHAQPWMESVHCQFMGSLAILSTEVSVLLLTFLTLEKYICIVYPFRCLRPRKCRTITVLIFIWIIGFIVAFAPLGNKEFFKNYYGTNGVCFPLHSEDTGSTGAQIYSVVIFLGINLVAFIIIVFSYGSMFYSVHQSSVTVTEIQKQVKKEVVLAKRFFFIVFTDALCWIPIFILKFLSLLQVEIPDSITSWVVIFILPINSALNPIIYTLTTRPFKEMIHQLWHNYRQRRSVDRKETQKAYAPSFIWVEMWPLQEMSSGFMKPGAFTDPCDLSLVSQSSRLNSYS

human RXFP2 [3] = molecular target: T3, human RXFP2 (human, UniProt Q8WXD0 1-754)
human RXFP1 [4] = molecular target: T1, human RXFP1; remark: listed apart in the source
mouse RXFP1 [5] = molecular target: T2, mouse RXFP1; remark: listed apart in the source
human RXFP2 [6] = molecular target: T3, human RXFP2; remark: listed apart in the source
human RXFP1 [7] = molecular target: T1, human RXFP1; remark: listed apart in the source
mouse RXFP1 [8] = molecular target: T2, mouse RXFP1; remark: listed apart in the source
human RXFP2 [9] = molecular target: T3, human RXFP2; remark: listed apart in the source
human RXFP1 [10] = molecular target: T1, human RXFP1; remark: listed apart in the source

T3 sequence (Q8WXD0 whole entry): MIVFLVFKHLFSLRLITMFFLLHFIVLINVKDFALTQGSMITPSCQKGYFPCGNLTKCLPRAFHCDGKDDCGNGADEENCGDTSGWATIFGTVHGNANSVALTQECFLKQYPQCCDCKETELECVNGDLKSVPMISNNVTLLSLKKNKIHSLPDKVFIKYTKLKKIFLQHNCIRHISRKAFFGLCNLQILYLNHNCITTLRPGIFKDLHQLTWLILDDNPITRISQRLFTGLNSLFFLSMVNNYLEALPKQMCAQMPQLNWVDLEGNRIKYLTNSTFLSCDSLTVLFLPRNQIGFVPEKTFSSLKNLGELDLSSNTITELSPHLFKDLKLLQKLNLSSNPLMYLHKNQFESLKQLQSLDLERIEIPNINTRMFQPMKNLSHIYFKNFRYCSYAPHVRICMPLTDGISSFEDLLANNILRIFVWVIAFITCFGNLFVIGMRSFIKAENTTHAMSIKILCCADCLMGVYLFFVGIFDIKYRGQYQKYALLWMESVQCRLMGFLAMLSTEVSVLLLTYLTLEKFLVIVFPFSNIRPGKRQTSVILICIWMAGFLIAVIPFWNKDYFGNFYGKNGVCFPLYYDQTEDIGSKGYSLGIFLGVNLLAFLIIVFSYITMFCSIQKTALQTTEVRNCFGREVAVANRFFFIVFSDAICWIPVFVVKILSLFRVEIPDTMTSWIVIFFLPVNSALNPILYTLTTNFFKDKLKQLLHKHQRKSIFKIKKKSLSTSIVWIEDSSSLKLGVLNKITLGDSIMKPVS

Binder	EC50 hRXFP1 (M), cAMP assay (human RXFP1 [1]) [M]	EC50 mRXFP1 (M), cAMP assay (mouse RXFP1 [2]) [M]	EC50 hRXFP2 (M), cAMP assay (human RXFP2 [3]) [M]	EC50 hRXFP1 (M), cAMP assay (human RXFP1 [4]) [M]	EC50 mRXFP1 (M), cAMP assay (mouse RXFP1 [5]) [M]	EC50 hRXFP2 (M), cAMP assay (human RXFP2 [6]) [M]	EC50 hRXFP1 (M), cAMP assay (human RXFP1 [7]) [M]	EC50 mRXFP1 (M), cAMP assay (mouse RXFP1 [8]) [M]	EC50 hRXFP2 (M), cAMP assay (human RXFP2 [9]) [M]	biological activity (EC50), cAMP assay (human RXFP1 [10]) [pM]
RELAX0023 (Fc fusion) chain 1: DKTHTCPPCPAPEFEGGPSVFLFPPKPKDTLMISRTPEVTCVVVDVSHEDPEVKFNWYVDGVEVHNAKTKPREEQYNSTYRVVSVLTVLHQDWLNGKEYKCKVSNKALPASIEKTISKAKGQPREPQVYTLPPCREEMTKNQVSLWCLVKGFYPSDIAVEWESNGQPENNYKTTPPVLDSDGSFFLYSKLTVDKSRWQQGNVFSCSVMHEALHNHYTQKSLSLSPGGGGGSGGGGSGGGGSGGGGGSQLYSALANKCCHVGCTKRSLARFC chain 2: DKTHTCPPCPAPEFEGGPSVFLFPPKPKDTLMISRTPEVTCVVVDVSHEDPEVKFNWYVDGVEVHNAKTKPREEQYNSTYRVVSVLTVLHQDWLNGKEYKCKVSNKALPASIEKTISKAKGQPREPQVCTLPPSREEMTKNQVSLSCAVKGFYPSDIAVEWESNGQPENNYKTTPPVLDSDGSFFLVSKLTVDKSRWQQGNVFSCSVMHEALHNHYTQKSLSLSPGGGGGSGGGGSGGGGSGGGGGSSWMEEVIKLCGRELVRAQIAICGMSTWS	3.32e-11	1.36e-11	4.2e-08	3.77e-11	3.27e-11	3.24e-08	–	–	–	–
RELAX0014 (recombinant murine Relaxin-1) (ligand) chain 1: MRVSEEWMDGFIRMCGREYARELIKICGASVGR chain 2: ESGGLMSQQCCHVGCSRRSIAKLYC	4.47e-12	2.37e-12	1.78e-12	4.47e-12	2.37e-12	1.78e-12	4.47e-12	2.37e-12	1.78e-12	–
RELAX0013 (recombinant human Relaxin-2) (ligand) chain 1: DSWMEEVIKLCGRELVRAQIAICGMSTWS chain 2: QLYSALANKCCHVGCTKRSLARFC	1.15e-12	7.54e-13	1.75e-09	1.15e-12	7.54e-13	1.75e-09	1.15e-12	7.54e-13	1.75e-09	–
RELAX0019 (Fc fusion) chain 1: GGAGGACPPCPAPEFEGGPSVFLFPPKPKDTLMISRTPEVTCVVVDVSHEDPEVKFNWYVDGVEVHNAKTKPREEQYNSTYRVVSVLTVLHQDWLNGKEYKCKVSNKALPASIEKTISKAKGQPREPQVYTLPPCREEMTKNQVSLWCLVKGFYPSDIAVEWESNGQPENNYKTTPPVLDSDGSFFLYSKLTVDKSRWQQGNVFSCSVMHEALHNHYTQKSLSLSPGGGGGSGGGGSGGGGSGGGGGSQLYSALANKCCHVGCTKRSLARFC chain 2: GGAGGACPPCPAPEFEGGPSVFLFPPKPKDTLMISRTPEVTCVVVDVSHEDPEVKFNWYVDGVEVHNAKTKPREEQYNSTYRVVSVLTVLHQDWLNGKEYKCKVSNKALPASIEKTISKAKGQPREPQVCTLPPSREEMTKNQVSLSCAVKGFYPSDIAVEWESNGQPENNYKTTPPVLDSDGSFFLVSKLTVDKSRWQQGNVFSCSVMHEALHNHYTQKSLSLSPGGGGGSGGGGSGGGGSGGGGGSSWMEEVIKLCGRELVRAQIAICGMSTWS	5.81e-11	2.24e-11	4.4e-08	3.57e-11	9.1e-12	3.42e-08	5.81e-11	2.24e-11	4.4e-08	–
RELAX0021 (Fc fusion) chain 1: GGAGGACPPCPAPEFEGGPSVFLFPPKPKDTLMISRTPEVTCVVVDVSHEDPEVKFNWYVDGVEVHNAKTKPREEQYNSTYRVVSVLTVLHQDWLNGKEYKCKVSNKALPASIEKTISKAKGQPREPQVYTLPPSREEMTKNQVSLWCLVKGFYPSDIAVEWESNGQPENNYKTTPPVLDSDGSFFLYSKLTVDKSRWQQGNVFSCSVMHEALHNHYTQKSLSLSPGGGGGSGGGGSGGGGSGGGGGSQLYSALANKCCHVGCTKRSLARFC chain 2: GGAGGACPPCPAPEFEGGPSVFLFPPKPKDTLMISRTPEVTCVVVDVSHEDPEVKFNWYVDGVEVHNAKTKPREEQYNSTYRVVSVLTVLHQDWLNGKEYKCKVSNKALPASIEKTISKAKGQPREPQVYTLPPSREEMTKNQVSLSCAVKGFYPSDIAVEWESNGQPENNYKTTPPVLDSDGSFFLVSKLTVDKSRWQQGNVFSCSVMHEALHNHYTQKSLSLSPGGGGGSGGGGSGGGGSGGGGGSSWMEEVIKLCGRELVRAQIAICGMSTWS	–	–	–	8.27e-11	4.14e-11	–	–	–	–	~80

Further lines, results first:

EC50 hRXFP1 (M), cAMP assay (human RXFP1 [1]) [M]	EC50 mRXFP1 (M), cAMP assay (mouse RXFP1 [2]) [M]	EC50 hRXFP2 (M), cAMP assay (human RXFP2 [3]) [M]	EC50 hRXFP1 (M), cAMP assay (human RXFP1 [4]) [M]	EC50 mRXFP1 (M), cAMP assay (mouse RXFP1 [5]) [M]	EC50 hRXFP2 (M), cAMP assay (human RXFP2 [6]) [M]	EC50 hRXFP1 (M), cAMP assay (human RXFP1 [7]) [M]	EC50 mRXFP1 (M), cAMP assay (mouse RXFP1 [8]) [M]	EC50 hRXFP2 (M), cAMP assay (human RXFP2 [9]) [M]	biological activity (EC50), cAMP assay (human RXFP1 [10]) [pM]	Binder
–	–	–	4.6e-11	1.56e-11	4.26e-08	–	–	–	–	RELAX0024 (Fc fusion) chain 1: DKTHTCPPCPAPEFEGGPSVFLFPPKPKDTLMISRTPEVTCVVVDVSHEDPEVKFNWYVDGVEVHNAKTKPREEQYNSTYRVVSVLTVLHQDWLNGKEYKCKVSNKALPASIEKTISKAKGQPREPQVCTLPPSREEMTKNQVSLSCAVKGFYPSDIAVEWESNGQPENNYKTTPPVLDSDGSFFLVSKLTVDKSRWQQGNVFSCSVMHEALHNHYTQKSLSLSPGGGGGSGGGGSGGGGSGGGGGSQLYSALANKCCHVGCTKRSLARFC chain 2: DKTHTCPPCPAPEFEGGPSVFLFPPKPKDTLMISRTPEVTCVVVDVSHEDPEVKFNWYVDGVEVHNAKTKPREEQYNSTYRVVSVLTVLHQDWLNGKEYKCKVSNKALPASIEKTISKAKGQPREPQVYTLPPCREEMTKNQVSLWCLVKGFYPSDIAVEWESNGQPENNYKTTPPVLDSDGSFFLYSKLTVDKSRWQQGNVFSCSVMHEALHNHYTQKSLSLSPGGGGGSGGGGSGGGGSGGGGGSSWMEEVIKLCGRELVRAQIAICGMSTWS
–	–	–	5.88e-11	2.88e-11	> 1.09e-07	–	–	–	–	RELAX0091 (Fc fusion) chain 1: QLYSALANKCCHVGCTKRSLARFCAAAGGGGSGGGGSGGGGSGGGGSACPPCPAPEFEGGPSVFLFPPKPKDTLMISRTPEVTCVVVDVSHEDPEVKFNWYVDGVEVHNAKTKPREEQYNSTYRVVSVLTVLHQDWLNGKEYKCKVSNKALPASIEKTISKAKGQPREPQVYTLPPCREEMTKNQVSLWCLVKGFYPSDIAVEWESNGQPENNYKTTPPVLDSDGSFFLYSKLTVDKSRWQQGNVFSCSVMHEALHNHYTQKSLSLSPG chain 2: SWMEEVIKLCGRELVRAQIAICGMSTWSAAAGGGGSGGGGSGGGGSGGGGSACPPCPAPEFEGGPSVFLFPPKPKDTLMISRTPEVTCVVVDVSHEDPEVKFNWYVDGVEVHNAKTKPREEQYNSTYRVVSVLTVLHQDWLNGKEYKCKVSNKALPASIEKTISKAKGQPREPQVCTLPPSREEMTKNQVSLSCAVKGFYPSDIAVEWESNGQPENNYKTTPPVLDSDGSFFLVSKLTVDKSRWQQGNVFSCSVMHEALHNHYTQKSLSLSPG
